From patent EP4559472A1

Target: Biotinylated C4b (UniProt P0C0L4)
Test: SPR, biotinylated C4b on streptavidin chip, 1:1 steady-state affinity model

mini-C4BP, sequence (P08603 other isoform, or with tags, fused parts or gaps): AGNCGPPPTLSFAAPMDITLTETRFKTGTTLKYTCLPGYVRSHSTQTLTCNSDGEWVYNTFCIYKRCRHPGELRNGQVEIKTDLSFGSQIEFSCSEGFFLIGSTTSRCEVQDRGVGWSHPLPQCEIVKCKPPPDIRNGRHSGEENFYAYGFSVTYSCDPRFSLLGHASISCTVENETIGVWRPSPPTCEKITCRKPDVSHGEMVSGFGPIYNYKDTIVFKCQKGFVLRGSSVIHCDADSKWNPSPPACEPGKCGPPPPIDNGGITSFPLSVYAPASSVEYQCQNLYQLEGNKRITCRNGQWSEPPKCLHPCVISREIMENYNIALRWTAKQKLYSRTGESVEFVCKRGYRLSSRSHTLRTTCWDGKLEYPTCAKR

Kd: 600 nM
Substance: mini-C4BP (from UniProt P08603 1107-1231)
